From article PMC8954901, “The Family Keeps on Growing: Four Novel Fungal OYEs Characterized” (International Journal of Molecular Sciences, 2022)
Each block holds one molecule with its values, some of them ahead of it.

Key:
[1] = molecular target: BfOYE1 (Botryotinia fuckeliana B05.10); experiment: native gel or EMSA
[2] = molecular target: BfOYE1 (Botryotinia fuckeliana B05.10); experiment: SEC; analytical gel filtration, Superdex 200 10/300 GL, 150 ug purified protein, Tris-HCl pH 8.0 50 mM, NaCl 150 mM, 1 mL/min; apparent molecular weight from a calibration curve
[3] = molecular target: AnOYE8 (Aspergillus niger CBS 513.88); experiment: native gel or EMSA; BN-PAGE, NativePAGE 3 to 12% Bis-Tris gel, 12.5 ug of sample from each gel filtration peak, 150 V for 2 h; BSA and HSA for comparison of the MWs
[4] = molecular target: AnOYE8 (Aspergillus niger CBS 513.88); experiment: SEC; analytical gel filtration, Superdex 200 10/300 GL, 150 ug purified protein, Tris-HCl pH 8.0 50 mM, NaCl 150 mM, 1 mL/min; apparent molecular weight from a calibration curve
[5] = molecular target: AnOYE8 (Aspergillus niger CBS 513.88); experiment: crystal structure; N-terminal His6-tagged AnOYE8, 15 mg/mL in Tris-HCl pH 8.0 50 mM; PEG 5000 MME 18% w/v, MES pH 6.5 0.1 M, ammonium sulphate 0.2 M, 293 K; space group C121, four molecules per asymmetric unit
[6] = molecular target: T1, AnOYE8 (Aspergillus niger, UniProt A2QBV3); experiment: X-ray crystal structure, […] Å; assay type: binding; settings: active site, non-covalently bound; pH 6.5 crystals
T1 construct: gene An02g01330
T1 sequence (A2QBV3 1-421): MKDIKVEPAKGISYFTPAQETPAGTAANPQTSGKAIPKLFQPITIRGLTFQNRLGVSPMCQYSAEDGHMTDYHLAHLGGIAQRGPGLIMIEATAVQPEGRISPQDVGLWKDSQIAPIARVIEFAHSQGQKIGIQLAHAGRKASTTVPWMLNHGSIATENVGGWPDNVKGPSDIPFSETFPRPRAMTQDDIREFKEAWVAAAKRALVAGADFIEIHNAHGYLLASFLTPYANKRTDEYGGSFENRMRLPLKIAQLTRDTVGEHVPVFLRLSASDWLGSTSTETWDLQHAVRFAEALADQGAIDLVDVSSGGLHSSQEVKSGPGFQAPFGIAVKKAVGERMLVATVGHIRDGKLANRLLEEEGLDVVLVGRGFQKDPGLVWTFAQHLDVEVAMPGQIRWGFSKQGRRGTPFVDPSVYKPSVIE

[7] = substrate: NC(=O)C1=CN([C@@H]2O[C@H](COP(=O)(O)OP(=O)(O)OC[C@H]3O[C@@H](n4cnc5c(N)ncnc54)[C@H](OP(=O)(O)O)[C@@H]3O)[C@@H](O)[C@H]2O)C=CC1; experiment: purified protein; assay type: biochemical, Aspergillus niger; settings: maleimide 1 mM, Tris-HCl 50 mM pH 8.0, 25 °C, enzyme 20 nM
[8] = substrate: O=C1C=CC(=O)N1; experiment: purified protein; assay type: biochemical, Aspergillus niger; settings: NADPH 100 µM, Tris-HCl 50 mM pH 8.0, 25 °C, enzyme 20 nM
[9] = substrate: O=C1C=CCC1; experiment: purified protein; assay type: biochemical, Botrytis cinerea; settings: NADPH 100 µM, Tris-HCl 50 mM pH 8.0, 25 °C, enzyme 200 nM
[10] = substrate: CC1=CCCCC1=O; experiment: purified protein; assay type: biochemical, Botrytis cinerea; settings: NADPH 100 µM, Tris-HCl 50 mM pH 8.0, 25 °C, enzyme 200 nM
[11] = substrate: NC(=O)C1=CN([C@@H]2O[C@H](COP(=O)(O)OP(=O)(O)OC[C@H]3O[C@@H](n4cnc5c(N)ncnc54)[C@H](OP(=O)(O)O)[C@@H]3O)[C@@H](O)[C@H]2O)C=CC1; experiment: purified protein; assay type: biochemical, Botrytis cinerea; settings: maleimide 1 mM, Tris-HCl 50 mM pH 8.0, 25 °C, enzyme 20 nM
[12] = substrate: O=C1C=CC(=O)N1; experiment: purified protein; assay type: biochemical, Botrytis cinerea; settings: NADPH 100 µM, Tris-HCl 50 mM pH 8.0, 25 °C, enzyme 20 nM
[13] = substrate: C=CC(=O)CCCCC; experiment: purified protein; assay type: biochemical, Botrytis cinerea; settings: NADPH 100 µM, Tris-HCl 50 mM pH 8.0, 25 °C, enzyme 200 nM
[14] = substrate: O=C1C=CCCC1; experiment: purified protein; assay type: biochemical, Botrytis cinerea; settings: NADPH 100 µM, Tris-HCl 50 mM pH 8.0, 25 °C, enzyme 200 nM

Molecule: BfOYE1 (enzyme)
- stoichiometry N [1]: 2
- stoichiometry N [2]: 2

- stoichiometry N [3]: 2
- stoichiometry N [4]: 2
- stoichiometry N [5]: 2
Molecule: AnOYE8 (enzyme)

Molecule: Cc1cc2nc3c(=O)[nH]c(=O)nc-3n(C[C@H](O)[C@H](O)[C@H](O)COP(=O)(O)O)c2cc1C [FMN]
- X-ray crystal structure, 2.8 Å [6]: AnOYE8 accommodated a non-covalently bound FMN cofactor molecule

B1: AnOYE2 (Aspergillus niger CBS 513.88) (protein)
chain: MCSKLFQPLQIGKTNLEHRVVMAPLTRFRADSQHVPLPMATTYYEQRASVPGTLLIAEATLISPSAGGVPHAPGVWSEEQVNGWKKITEAVHKKGSFIFCQLIAAGRAADPAQLHAEGGFMLHAPSPIPIEPGMPVPKELDEIEVQEIINDFAMAAKNAIRAGFDGVEIHGANGYLVDQFLQDVSNKRNDKWGGSIPNRARFGLEVAKAVADAIGADRLGFRLSPWNTWQSMKMVDPVPQFTYFVERLQQLGLAYLHVIESRVINNVDCEKEGSIKFLLDVWGKSAPVIVAGGYRPENVENALEEEYKDYKVAVAFGRHFIANPDLPFRIRHDIHLNPYDRESFYTPLQENGYTDYPFSAEFIKSKTKC
- Km [7]: 37 ± 10 µM
- kcat [7]: 8 ± 0.4 s⁻¹
- kcat/Km [7]: 216000 M⁻¹ s⁻¹
- Km [8]: 10 ± 0 µM
- kcat [8]: 7.38 ± 0.66 s⁻¹
- kcat/Km [8]: 738000 M⁻¹ s⁻¹

B2: BfOYE4 (Botrytis cinerea B05.10) (protein)
chain: MSTPTPHPQHGVPCGTSTPRPGLLNTPAPGVPFYTPLQSPPSGTALHLSPSTPKLFTPLKIRSLTLQNRIMLSPMCQYSASNGHFTPWHMAHLGGIISRGPGLSMVEATSVLPEGRITPEDSGLWLDSQGDKLKEVVQFAHSQGQLIGIQLSHAGRKASMVAPWLDRSAVATEEAGGWPTKVKGPSAIPYDEHHYKPSAMTLEDIQEFKDAWAASLKRALKAGFDVIEIHNAHGYLLHEFVSPVSNKRTDQYGGSFENRIRLTLEIVEITRKIIPESMPLFLRISATDWLDYEGFGEESWTVADSARLAGILADRGVDLMDVSSGANHPRQKITAGLGYQAPFAKEIKRVVGERMLVGTVGMIGSGRQAEGLLSGMGGERGVDEGEEEEGKGTELDLVIVARGFQKNPGLVWEWAEELGVRIMVAHQMRWGFRGKAGGH
notes: N-terminal His6 tag, E. coli BL21(DE3), 421 residues, dimer in crystal, several oligomeric species in solution; cloning reported elsewhere
- Km [9]: 1070 ± 120 µM
- kcat [9]: 1.06 ± 0.03 s⁻¹
- kcat/Km [9]: 1000 M⁻¹ s⁻¹
- Km [10]: 1830 ± 180 µM
- kcat [10]: 0.56 ± 0.013 s⁻¹
- kcat/Km [10]: 300 M⁻¹ s⁻¹
- Km [11]: 130 ± 20 µM
- kcat [11]: 89.2 ± 3.37 s⁻¹
- kcat/Km [11]: 686000 M⁻¹ s⁻¹
- Km [12]: 70 ± 10 µM
- kcat [12]: 36.3 ± 1.12 s⁻¹
- kcat/Km [12]: 519000 M⁻¹ s⁻¹
- Km [13]: 2720 ± 500 µM
- kcat [13]: 22.6 ± 1.14 s⁻¹
- kcat/Km [13]: 8300 M⁻¹ s⁻¹
- Km [14]: 650 ± 90 µM
- kcat [14]: 2.57 ± 0.07 s⁻¹
- kcat/Km [14]: 3900 M⁻¹ s⁻¹
